According to article PMC9482650, “Quantitative fragmentomics allow affinity mapping of interactomes” (Nature Communications, 2022):

T1: TJP3_3, O95049
T1 sequence (O95049 375-456, limits assumed, looked up): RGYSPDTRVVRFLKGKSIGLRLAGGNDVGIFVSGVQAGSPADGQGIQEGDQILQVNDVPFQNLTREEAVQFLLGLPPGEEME

T2: TX1BP3, O14907
T2 sequence (O14907 10-122, limits assumed, looked up): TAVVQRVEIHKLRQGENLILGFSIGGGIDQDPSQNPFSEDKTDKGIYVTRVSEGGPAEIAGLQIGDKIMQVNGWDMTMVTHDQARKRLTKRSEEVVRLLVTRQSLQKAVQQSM

T3: DLG3_2, Q92796
T3 sequence (Q92796 221-321, limits assumed, looked up): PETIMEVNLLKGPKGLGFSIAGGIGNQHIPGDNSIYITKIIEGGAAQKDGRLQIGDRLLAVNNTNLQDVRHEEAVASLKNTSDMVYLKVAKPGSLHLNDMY

T4: DFNB31_3, Q9P202
T4 sequence (Q9P202 811-907, limits assumed, looked up): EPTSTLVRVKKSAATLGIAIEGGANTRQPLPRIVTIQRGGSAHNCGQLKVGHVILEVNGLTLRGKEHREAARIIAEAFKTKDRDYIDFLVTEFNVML

T5: PARD3B_1, Q8TEW8
T5 sequence (Q8TEW8 196-299, limits assumed, looked up): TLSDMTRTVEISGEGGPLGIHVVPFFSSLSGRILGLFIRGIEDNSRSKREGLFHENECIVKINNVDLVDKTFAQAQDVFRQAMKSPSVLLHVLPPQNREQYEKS

T6: LIN7A, O14910
T6 sequence (O14910 103-200, limits assumed, looked up): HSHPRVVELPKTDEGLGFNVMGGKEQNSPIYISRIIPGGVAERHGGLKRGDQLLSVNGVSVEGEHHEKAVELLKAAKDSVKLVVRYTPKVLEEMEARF

T7: RADIL, Q96JH8
T7 sequence (Q96JH8 971-1071, limits assumed, looked up): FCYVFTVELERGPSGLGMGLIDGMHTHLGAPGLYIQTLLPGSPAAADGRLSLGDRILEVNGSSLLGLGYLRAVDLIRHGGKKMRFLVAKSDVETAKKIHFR

T8: NHERF3_1, Q5T2W1
T8 sequence (Q5T2W1 4-100, limits assumed, looked up): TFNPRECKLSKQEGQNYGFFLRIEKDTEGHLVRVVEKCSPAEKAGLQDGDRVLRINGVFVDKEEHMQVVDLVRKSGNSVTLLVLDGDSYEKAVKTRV

T9: SNTG1, Q9NSN8
T9 sequence (Q9NSN8 52-150, limits assumed, looked up): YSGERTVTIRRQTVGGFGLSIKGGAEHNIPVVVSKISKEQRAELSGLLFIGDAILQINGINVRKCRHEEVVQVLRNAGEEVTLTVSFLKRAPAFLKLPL

T10: APBA3_1, O96018
T10 sequence (O96018 389-490, limits assumed, looked up): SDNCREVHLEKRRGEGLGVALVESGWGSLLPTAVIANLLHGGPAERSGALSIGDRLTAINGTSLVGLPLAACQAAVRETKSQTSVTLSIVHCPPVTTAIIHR

T11: SYNJ2BP, P57105
T11 sequence (P57105 8-110, limits assumed, looked up): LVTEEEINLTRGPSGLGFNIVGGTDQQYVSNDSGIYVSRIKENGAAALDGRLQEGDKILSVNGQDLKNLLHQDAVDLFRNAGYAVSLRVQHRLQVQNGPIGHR


Key:
Assay in all cases: holdup assay
Parameters in all cases: key: below the threshold = too weak to quantify, mostly under pKd 3.1 to 4
Conditions in all cases: plain residues with an end cap or a label only (N-terminal biotin on a linker: ado-ado)
Inadl_9, Q8NI35 = target: Inadl_9, Q8NI35
Sequence of Inadl_9, Q8NI35 (Q8NI35 1530-1615): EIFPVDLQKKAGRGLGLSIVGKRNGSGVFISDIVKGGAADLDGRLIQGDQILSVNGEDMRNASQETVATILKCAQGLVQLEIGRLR

IL16_4, Q14005 = target: IL16_4, Q14005
Sequence of IL16_4, Q14005 (Q14005 1229-1329): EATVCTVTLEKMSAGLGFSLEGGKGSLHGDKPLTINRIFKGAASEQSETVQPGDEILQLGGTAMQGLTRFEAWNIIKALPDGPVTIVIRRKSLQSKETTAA

NOS1, P29475 = target: NOS1, P29475
Sequence of NOS1, P29475 (P29475 9-101): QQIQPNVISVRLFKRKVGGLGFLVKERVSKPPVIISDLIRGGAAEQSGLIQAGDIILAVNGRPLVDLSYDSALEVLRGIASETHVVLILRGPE

TJP3_3, O95049 = target: T1, TJP3_3, O95049
TX1BP3, O14907 = target: T2, TX1BP3, O14907
FRMPD3, Q5JV73 = target: FRMPD3, Q5JV73
Sequence of FRMPD3, Q5JV73 (Q5JV73 12-100): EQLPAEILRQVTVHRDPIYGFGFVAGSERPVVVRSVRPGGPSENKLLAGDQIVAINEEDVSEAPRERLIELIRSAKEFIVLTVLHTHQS

DLG3_2, Q92796 = target: T3, DLG3_2, Q92796
GRIP2_5, Q9C0E4 = target: GRIP2_5, Q9C0E4
Sequence of GRIP2_5, Q9C0E4 (Q9C0E4 544-642): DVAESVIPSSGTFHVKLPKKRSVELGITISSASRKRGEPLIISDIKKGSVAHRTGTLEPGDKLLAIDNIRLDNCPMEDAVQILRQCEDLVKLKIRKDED

DFNB31_3, Q9P202 = target: T4, DFNB31_3, Q9P202
PARD3B_1, Q8TEW8 = target: T5, PARD3B_1, Q8TEW8
LIN7A, O14910 = target: T6, LIN7A, O14910
FRMPD4, Q14CM0 = target: FRMPD4, Q14CM0
Sequence of FRMPD4, Q14CM0 (Q14CM0 67-160): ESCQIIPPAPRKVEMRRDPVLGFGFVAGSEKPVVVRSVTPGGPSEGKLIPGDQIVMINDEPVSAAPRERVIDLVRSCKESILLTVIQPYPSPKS

DLG2_2, Q15700 = target: DLG2_2, Q15700
DLG5_1, Q8TDM6 = target: DLG5_1, Q8TDM6
Sequence of DLG5_1, Q8TDM6 (Q8TDM6 617-713): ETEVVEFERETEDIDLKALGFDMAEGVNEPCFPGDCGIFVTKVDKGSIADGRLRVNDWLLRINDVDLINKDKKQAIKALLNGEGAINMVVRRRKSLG

MAGI2_3, Q86UL8 = target: MAGI2_3, Q86UL8
Sequence of MAGI2_3, Q86UL8 (Q86UL8 600-682): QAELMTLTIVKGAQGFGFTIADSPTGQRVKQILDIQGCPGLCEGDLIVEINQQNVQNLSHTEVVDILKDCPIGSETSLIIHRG

GORASP2, Q9H8Y8 = target: GORASP2, Q9H8Y8
CASK, O14936 = target: CASK, O14936
Sequence of CASK, O14936 (O14936 487-570): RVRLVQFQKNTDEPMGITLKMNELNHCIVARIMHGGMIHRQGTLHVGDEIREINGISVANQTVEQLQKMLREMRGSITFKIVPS

RADIL, Q96JH8 = target: T7, RADIL, Q96JH8
MAGI2_6, Q86UL8 = target: MAGI2_6, Q86UL8
Sequence of MAGI2_6, Q86UL8 (Q86UL8 1141-1229): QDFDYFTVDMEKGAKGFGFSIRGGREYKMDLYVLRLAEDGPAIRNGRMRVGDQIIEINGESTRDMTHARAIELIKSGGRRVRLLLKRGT

NHERF3_1, Q5T2W1 = target: T8, NHERF3_1, Q5T2W1
DLG2_3, Q15700 = target: DLG2_3, Q15700
IL16_3, Q14005 = target: IL16_3, Q14005
Sequence of IL16_3, Q14005 (Q14005 1107-1207): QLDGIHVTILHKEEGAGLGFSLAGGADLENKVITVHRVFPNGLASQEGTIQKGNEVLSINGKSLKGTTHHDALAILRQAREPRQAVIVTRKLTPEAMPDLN

MAGI1_1, Q96QZ7 = target: MAGI1_1, Q96QZ7
Sequence of MAGI1_1, Q96QZ7 (Q96QZ7 1-106): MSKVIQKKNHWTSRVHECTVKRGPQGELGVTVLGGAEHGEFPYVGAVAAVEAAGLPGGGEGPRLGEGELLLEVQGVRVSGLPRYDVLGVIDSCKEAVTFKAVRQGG

SNTG1, Q9NSN8 = target: T9, SNTG1, Q9NSN8
APBA3_1, O96018 = target: T10, APBA3_1, O96018
FRMPD2_1, Q68DX3 = target: FRMPD2_1, Q68DX3
Sequence of FRMPD2_1, Q68DX3 (Q68DX3 770-861): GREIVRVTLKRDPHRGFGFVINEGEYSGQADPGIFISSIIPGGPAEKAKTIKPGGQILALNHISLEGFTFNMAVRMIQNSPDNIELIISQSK

SYNJ2BP, P57105 = target: T11, SYNJ2BP, P57105

Binder | pKd (Inadl_9, Q8NI35) | pKd (IL16_4, Q14005) | pKd (NOS1, P29475) | pKd (TJP3_3, O95049) | pKd (TX1BP3, O14907) | pKd (FRMPD3, Q5JV73) | pKd (DLG3_2, Q92796) | pKd (GRIP2_5, Q9C0E4) | pKd (DFNB31_3, Q9P202) | pKd (PARD3B_1, Q8TEW8) | pKd (LIN7A, O14910) | pKd (FRMPD4, Q14CM0) | pKd (DLG2_2, Q15700) | pKd (DLG5_1, Q8TDM6) | pKd (MAGI2_3, Q86UL8) | pKd (GORASP2, Q9H8Y8) | pKd (CASK, O14936) | pKd (RADIL, Q96JH8) | pKd (MAGI2_6, Q86UL8) | pKd (NHERF3_1, Q5T2W1) | also measured
ASGLDKRDYV [CLDN9, O95484] | 3.51 | below the threshold | 4.22 | 3.65 | 3.92 | below the threshold | below the threshold | below the threshold | below the threshold | below the threshold | below the threshold | below the threshold | below the threshold | below the threshold | below the threshold | below the threshold | below the threshold | 4.08 | below the threshold | 4.46 | pKd (DLG2_3, Q15700): below the threshold; pKd (IL16_3, Q14005): below the threshold; pKd (MAGI1_1, Q96QZ7): below the threshold; pKd (SNTG1, Q9NSN8): below the threshold; pKd (APBA3_1, O96018): below the threshold; pKd (FRMPD2_1, Q68DX3): below the threshold; pKd (SYNJ2BP, P57105): below the threshold
SSGSTSSSRI [ADGRG1, Q9Y653] | below the threshold | 3.63 | below the threshold | below the threshold | below the threshold | below the threshold | 3.75 | below the threshold | 3.96 | 3.93 | below the threshold | below the threshold | 3.49 | below the threshold | below the threshold | 3.57 | below the threshold | below the threshold | below the threshold | 4.48 | pKd (DLG2_3, Q15700): 3.73; pKd (IL16_3, Q14005): below the threshold; pKd (MAGI1_1, Q96QZ7): below the threshold; pKd (SNTG1, Q9NSN8): below the threshold; pKd (APBA3_1, O96018): below the threshold; pKd (FRMPD2_1, Q68DX3): below the threshold; pKd (SYNJ2BP, P57105): below the threshold
PEEGKKQSQC [GAGE12J, A6NER3] | below the threshold | 3.69 | below the threshold | below the threshold | below the threshold | below the threshold | 4.04 | below the threshold | 4 | below the threshold | below the threshold | 3.48 | below the threshold | below the threshold | 3.58 | below the threshold | below the threshold | below the threshold | below the threshold | 3.68 | pKd (DLG2_3, Q15700): 3.61; pKd (IL16_3, Q14005): below the threshold; pKd (MAGI1_1, Q96QZ7): below the threshold; pKd (SNTG1, Q9NSN8): below the threshold; pKd (APBA3_1, O96018): below the threshold; pKd (FRMPD2_1, Q68DX3): below the threshold; pKd (SYNJ2BP, P57105): 3.54

The next lines start with results.

pKd (Inadl_9, Q8NI35) | pKd (IL16_4, Q14005) | pKd (NOS1, P29475) | pKd (TJP3_3, O95049) | pKd (TX1BP3, O14907) | pKd (FRMPD3, Q5JV73) | pKd (DLG3_2, Q92796) | pKd (GRIP2_5, Q9C0E4) | pKd (DFNB31_3, Q9P202) | pKd (PARD3B_1, Q8TEW8) | pKd (LIN7A, O14910) | pKd (FRMPD4, Q14CM0) | pKd (DLG2_2, Q15700) | pKd (DLG5_1, Q8TDM6) | pKd (MAGI2_3, Q86UL8) | pKd (GORASP2, Q9H8Y8) | pKd (CASK, O14936) | pKd (RADIL, Q96JH8) | pKd (MAGI2_6, Q86UL8) | pKd (NHERF3_1, Q5T2W1) | Binder | also measured
below the threshold | below the threshold | 3.52 | below the threshold | 3.62 | below the threshold | below the threshold | below the threshold | 4.01 | 3.92 | below the threshold | 4.84 | below the threshold | below the threshold | 3.52 | below the threshold | below the threshold | below the threshold | 3.51 | 5.27 | NPETRDETQL [KCNT1, Q5JUK3] | pKd (DLG2_3, Q15700): below the threshold; pKd (IL16_3, Q14005): below the threshold; pKd (MAGI1_1, Q96QZ7): below the threshold; pKd (SNTG1, Q9NSN8): below the threshold; pKd (APBA3_1, O96018): below the threshold; pKd (FRMPD2_1, Q68DX3): below the threshold; pKd (SYNJ2BP, P57105): 4.43
3.57 | below the threshold | 3.71 | below the threshold | 4.25 | below the threshold | 3.73 | below the threshold | below the threshold | below the threshold | below the threshold | below the threshold | 3.85 | below the threshold | below the threshold | below the threshold | below the threshold | below the threshold | 4.27 | 3.56 | PDSNPEESSV [SEMA4C, Q9C0C4] | pKd (DLG2_3, Q15700): below the threshold; pKd (IL16_3, Q14005): below the threshold; pKd (MAGI1_1, Q96QZ7): 3.57; pKd (SNTG1, Q9NSN8): 4.65; pKd (APBA3_1, O96018): below the threshold; pKd (FRMPD2_1, Q68DX3): below the threshold; pKd (SYNJ2BP, P57105): 5.09
